The supplement of paper PMC10567573

B1: KIAA0774 (parent)
chain: FEDEVKRLGWQQQAELQELEERLQ
B2: SCARA5 (parent)
chain: VTEDLRLKDWEHSIALRNISLAKG

Variants of: B1
Assay: protein stability index of a GFP-peptide fusion (GPS, HEK-293T) (PSI 1-6); higher = more stable
Conditions: c terminus: a fixed tail appended
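Further: lentivirally expressed fusions sorted by FACS into six bins by GFP to DsRed ratio, PSI derived from sequencing read proportions per bin multiplied by bin number.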

Protein stability index: each site, then its substitutions
R22: M 4.04 | T 4.83 | V 3.77 | S 5.01 | D 5.9 | Q 4.95 | G 5.26 | Y 4.24 | P 5.33 | E 5.78 | I 4.06 | W 4.31 | L 4.13 | K 3.85 | F 4.62 | C 4.48 | A 4.99 | N 5.69 | H 4.88
L23: F 4.09 | E 4.65 | K 4.16 | Q 4.05 | H 4.53 | S 4.91 | W 3.88 | C 4.14 | M 4.03 | T 4.84 | D 5.21 | N 4.42 | R 4.58 | A 4.08 | Y 4.51 | I 3.97 | G 4.58 | V 4.65 | P 5.48
Q24: P 4.96 | A 3.81 | R 4.14 | L 3.48 | K 4.73 | V 3.12 | I 3.41 | G 4.62 | M 3.92 | F 3.28 | W 3.49 | D 3.98 | Y 3.82 | E 3.8 | S 4.01 | H 3.93 | N 4.48 | T 3.99 | C 4.22
E21: S 4.17 | Y 3.88 | I 3.79 | L 4.71 | W 2.91 | V 4.14 | M 4.32 | G 4.76 | N 3.17 | P 4.51 | F 4.07 | Q 4.67 | K 4.76 | T 4.69 | R 4.46 | H 4.41

Variants of: B2
Assay: as above
Conditions: c terminus: a fixed tail appended

Protein stability index, by site and new letter:
I14: E 4.03 | N 3.96 | H 3.47 | Q 3.91 | P 4.76 | F 3.21 | R 3.64 | C 3.26 | G 4.17 | K 3.86 | L 3.3 | D 4.26 | M 3.4 | A 4.04
D4: M 2.45 | N 3.33 | T 3.03 | V 2.81 | I 2.35 | W 2.05 | H 3.43 | Y 2.01 | R 3.16 | A 2.87 | K 2.61 | F 2.03 | Q 3.42 | E 3.45 | G 3.04 | C 2.53 | P 3.41 | S 2.76 | L 2.26
K8: A 3.43 | H 3.44 | G 3.18 | T 3.27 | L 3.04 | W 2.57 | E 3.49 | P 3.48 | D 3.62 | R 3.11 | M 2.77 | Y 2.83 | N 3.48 | Q 2.91 | F 2.85 | V 2.82 | I 2.87 | S 3.28 | C 3.25
V1: F 2.81 | W 3.42 | G 3.15 | Q 4.04 | H 3.89 | Y 2.83 | E 3.98 | S 3.74 | L 3.26 | N 3.98 | T 3.89 | R 3.39 | K 3.34 | D 3.75 | M 3.5 | A 3.77 | C 2.72 | I 3.54 | P 3.88
E11: T 2.75 | C 2.47 | F 2.24 | V 1.8 | P 2.92 | M 2.46 | Y 2.57 | I 1.91 | N 3.56 | K 3.3 | H 2.72 | R 2.91 | W 2.55 | D 3.33 | G 2.87 | S 2.98 | A 2.51 | L 2.74 | Q 3.16
E3: Q 2.63 | G 2.94 | A 1.74 | S 3.16 | C 2.25 | Y 2.44 | I 2.26 | H 3.03 | L 1.37 | T 2.71 | P 3.39 | M 2.75 | R 2.96 | F 1.85 | N 3.03 | K 3 | W 1.58 | V 1.69 | D 3.68
W10: M 3.67 | L 3.55 | I 3.41 | T 4.26 | P 4.41 | Q 4.29 | A 4.28 | D 4.67 | N 4.26 | K 4.22 | F 3.12 | E 4.62 | H 4.37 | V 4.14 | G 4.63 | S 4.39 | C 4.11 | R 4.45 | Y 3.62
R6: D 3.73 | Q 3.79 | N 3.22 | L 3.29 | S 3.27 | T 3.75 | H 3.62 | Y 2.85 | F 3.56 | V 3.95 | K 3.66 | I 3.15 | W 2.62 | P 3.26 | E 3.58 | M 2.99 | A 3.63 | G 3.53 | C 3.86
L7: V 3.71 | M 3.45 | A 3.35 | W 2.98 | D 3.89 | C 3.39 | Q 3.63 | T 3.39 | E 4.21 | F 3.75 | R 2.81 | G 3.67 | P 3.89 | N 3.83 | Y 3.2 | H 3.69 | S 3.84 | K 3.91 | I 3.13
D9: H 2.71 | K 2.82 | E 3.17 | V 3.01 | F 2.44 | C 3.09 | G 2.29 | W 2.22 | P 3.37 | Y 2.69 | N 3.12 | A 2.94 | S 3.17 | I 2.27 | M 1.96 | T 3.18 | Q 3.31 | R 3.14 | L 2.64
T2: Y 3.17 | D 3.8 | M 3.38 | N 3.85 | L 2.49 | F 2.61 | H 3.52 | A 3.21 | Q 3.58 | K 3.65 | R 3.21 | G 3.26 | P 3.69 | S 3.11 | I 2.5 | V 3.48 | C 3.12 | E 4.15 | W 2.46
H12: R 3.51 | N 3.7 | W 2.25 | E 3.84 | A 3.2 | P 3.29 | T 3.51 | F 2.28 | M 2.77 | G 3.63 | S 3.88 | Q 3.43 | I 2.4 | L 2.38 | V 2.44 | D 3.75 | Y 2.76 | K 3.61 | C 2.62
L5: G 3.93 | R 3.74 | H 3.91 | N 3.83 | V 3.65 | E 4.19 | T 3.68 | I 3.63 | Y 3.34 | Q 3.73 | S 3.89 | P 3.77 | M 3.46 | D 4.14 | C 3.34 | F 2.97 | K 4.14 | W 3.35 | A 3.92
S13: R 3.4 | T 3.41 | P 3.25 | Q 3.68 | K 3.23 | Y 2.88 | D 3.65 | G 3.01 | H 3.1 | I 2.85 | E 3.58 | N 2.93 | W 2.57 | A 3.37 | M 2.81 | V 3.37 | C 3.08 | F 2.64 | L 2.93
